Data taken from paper PMC2172130.

Molecular target: tomosyn (expressed in Sf9 cells) (UniProt Q9WU70)
Assay: far-Western, overlay or dot blot

UniProt Q9WU70, sequence (Q9WU70 whole entry): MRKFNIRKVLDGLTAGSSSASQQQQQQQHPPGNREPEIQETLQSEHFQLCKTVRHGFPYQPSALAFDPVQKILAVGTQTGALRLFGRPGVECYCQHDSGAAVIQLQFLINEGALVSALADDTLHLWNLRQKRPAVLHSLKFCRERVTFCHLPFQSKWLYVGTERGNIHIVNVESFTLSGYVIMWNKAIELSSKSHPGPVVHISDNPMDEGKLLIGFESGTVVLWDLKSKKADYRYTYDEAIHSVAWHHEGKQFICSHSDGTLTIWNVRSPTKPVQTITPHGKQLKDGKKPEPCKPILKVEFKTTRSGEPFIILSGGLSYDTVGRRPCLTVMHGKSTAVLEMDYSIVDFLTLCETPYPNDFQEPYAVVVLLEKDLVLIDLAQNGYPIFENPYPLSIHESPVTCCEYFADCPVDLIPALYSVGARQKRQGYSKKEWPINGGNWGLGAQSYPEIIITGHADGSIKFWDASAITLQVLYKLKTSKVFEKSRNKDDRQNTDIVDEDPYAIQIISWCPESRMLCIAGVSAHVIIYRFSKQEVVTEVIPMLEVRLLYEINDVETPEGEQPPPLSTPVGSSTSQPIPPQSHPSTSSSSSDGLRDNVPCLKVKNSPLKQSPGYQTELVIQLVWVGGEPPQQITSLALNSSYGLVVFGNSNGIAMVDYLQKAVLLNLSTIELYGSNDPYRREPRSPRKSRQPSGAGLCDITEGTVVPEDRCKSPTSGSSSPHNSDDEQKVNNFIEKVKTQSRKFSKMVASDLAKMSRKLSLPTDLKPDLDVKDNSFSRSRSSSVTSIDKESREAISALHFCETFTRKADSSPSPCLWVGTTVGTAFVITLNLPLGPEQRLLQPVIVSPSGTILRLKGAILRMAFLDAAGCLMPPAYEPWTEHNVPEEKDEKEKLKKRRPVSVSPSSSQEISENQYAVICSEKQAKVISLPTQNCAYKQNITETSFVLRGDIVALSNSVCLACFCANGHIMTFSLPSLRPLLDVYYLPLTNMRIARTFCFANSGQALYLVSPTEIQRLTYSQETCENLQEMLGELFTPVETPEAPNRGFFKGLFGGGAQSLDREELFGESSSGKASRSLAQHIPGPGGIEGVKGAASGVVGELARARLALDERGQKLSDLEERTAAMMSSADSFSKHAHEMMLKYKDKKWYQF

## syntaxin-1, nonphosphorylated form (recombinant) (from UniProt P32851 1-288) (natural protein)
  Kd: 120 nM
